In US20250066503A1, “CELL INJURY INDUCING THERAPEUTIC DRUG FOR USE IN CANCER THERAPY” (CHUGAI SEIYAKU KABUSHIKI KAISHA, priority 2016, published 2025):
Changes are numbered by the printed parent chain. Names and notes keep the numbering of the source. Values joined by “and” are separate entries in the source; they are usually repeats but may differ in a detail not shown here. Equal entries are not always repeated.

B1: TR01H080-E22Hh/none-Hi-Kn010G3/L0000-k0 (antibody, V domains shown)
VH: QVQLVESGGGLVQPGRSLRLSCAASGFTFSNAWMHWVRQAPGKGLEWVAQIKDKSNNYATYYAESVKGRFTISRADSKNSIYLQMNSLKTEDTAVYYCRYVHYAAVRRRLSSYGVDIWGQGTTVTVSS
VL: DIVMTQSPLSLPVTPGEPASISCRSSQSLVHSNRNTYLHWYQQKPGQAPRLLIYKVSNRFSGVPDRFSGSGSGTDFTLKISRVEAEDVGVYYCGQGTQVPYTFGQGTKLEIKR
notes: one-arm
B2: TR01H084-E2702GsKsc/none-Hi-E2704sE/L0011-k0 (antibody, human IgG4 S228P, kappa, N297A, V domains shown)
VH: QVQLVESGGGVVQPGGSLRLSCAASGFTFSNAWMHWVRQAPGKGLEWVAQIKDKSQNYATYYAESVKGRFTISRADSKNSIYLQMNSLKTEDTAVYYCRYVHYAAGYGVDIWGQGTTVTVSS
VL: B1 VL with S28P
notes: one-arm
B3: rCE115H-E22Hh/none-Hi-Kn010G3/L0000-k0 (antibody, human IgG1, kappa, L234A L235A, N297A, V domains shown)
VH: EVQLVETGGSLVQPGKSLKLTCATSGFTFSNAWMHWVRQSPEKQLEWVAQIKAKSNNYATYYAESVKGRFTISRDDSKSNIYLQMNSLKEEDTAVYYCRYVHYGAYYGVDAWGQGTSVTVSS
VL: B1 VL
notes: one-arm
B4: TR01H109-E2702GsKsc/none-Hi-E2704sE/L0011-k0 (antibody, human IgG4 S228P, kappa, N297A, V domains shown)
VH: B2 VH with V11L, G16R, Y62V, A75D, I81L, I111A
VL: B1 VL with S28P
notes: one-arm
B5: TR01H113-E2702GsKsc/none-Hi-E2704sE/L0011-k0 (antibody, human IgG4 S228P, kappa, N297A, V domains shown)
VH: B2 VH with Y62V
VL: B1 VL with S28P
notes: one-arm
B6: TR01H082-E2702GsKsc/none-Hi-E2704sE/L0011-k0 (antibody, human IgG4 S228P, kappa, N297A, V domains shown)
VH: B2 VH with V11L, G16R, A75D, I81L, I111A
VL: B1 VL with S28P
notes: one-arm
B7: TR01H079-E22Hh/none-Hi-Kn010G3/L0000-k0 (antibody, V domains shown)
VH: B1 VH with V106A, R107E, R108M, R109V, L110R, S111D
VL: B1 VL
notes: one-arm
B8: GPC3_ERY22_CE115 (rCE115H-E22Hh/rCE115L-k0/GL4-E22Hk/H0000-E22L) (bispecific antibody, human IgG1, kappa, L234A L235A, N297A)
heavy: EVQLVETGGSLVQPGKSLKLTCATSGFTFSNAWMHWVRQSPEKQLEWVAQIKAKSNNYATYYAESVKGRFTISRDDSKSNIYLQMNSLKEEDTAVYYCRYVHYGAYYGVDAWGQGTSVTVSSASTKGPSVFPLAPSSKSTSGGTAALGCLVKDYFPEPVTVSWNSGALTSGVHTFPAVLQSSGLYSLSSVVTVPSSSLGTQTYICNVNHKPSNTKVDKKVEPKSCDKTHTCPPCPAPEAAGGPSVFLFPPKPKDTLMISRTPEVTCVVVDVSHEDPEVKFNWYVDGVEVHNAKTKPREEQYASTYRVVSVLTVLHQDWLNGKEYKCKVSNKALPAPIEKTISKAKGQPREPQVYTLPPSRCELTKNQVSLSCAVKGFYPSDIAVEWESNGQPENNYKTTPPVLDSDGSFFLVSKLTVDKSRWQQGNVFSCSVMHEALHNHYTQKSLSLSPDYKDDDDK
light: DVVMTQTPVSMSVSLGGQVSISCRSSQSLVHNNGNTYVSWYIQKPSQSPQLLIYKVSNRFSGISDRFSGSGSGTDFTLKISRVEPDDLGVYYCGQGTQDPYTFGAGTKLELKRTVAAPSVFIFPPSDEQLKSGTASVVCLLNNFYPREAKVQWKVDNALQSGNSQESVTEQDSKDSTYSLSSTLTLSKADYEKHKVYACEVTHQGLSSPVTKSFNRGEC
chain 1: DIVMTQSPLSLPVTPGEPASISCRSSQSLVHSNRNTYLHWYQQKPGQAPRLLIYKVSNRFSGVPDRFSGSGSGTDFTLKISRVEAEDVGVYYCSQNTHVPPTFGQGTKLEIKSSASTKGPSVFPLAPSSKSTSGGTAALGCLVKDYFPEPVTVSWNSGALTSGVHTFPAVLQSSGLYSLSSVVTVPSSSLGTQTYICNVNHKPSNTKVDKKVEPKSCDKTHTCPPCPAPEAAGGPSVFLFPPKPKDTLMISRTPEVTCVVVDVSHEDPEVKFNWYVDGVEVHNAKTKPREEQYASTYRVVSVLTVLHQDWLNGKEYKCKVSNKALPAPIEKTISKAKGQPREPQVCTLPPSRDELTKNQVSLWCLVKGFYPSDIAVEWESNGQPENNYKTTPPVLDSDGSFFLYSKLTVDKSRWQQGNVFSCSVMHEALHNHYTQKSLSLSPHHHHHHHH
chain 2: QVQLVQSGAEVKKPGASVKVSCKASGYTFTDYEMHWIRQPPGQGLEWIGAIDPKTGDTAYSQKFKGRVTLTADKSTSTAYMELSSLTSEDTAVYYCTRFYSYTYWGQGTLVTVSSASVAAPSVFIFPPSDEQLKSGTASVVCLLNNFYPREAKVQWKVDNALQSGNSQESVTEQDSKDSTYSLSSTLTLSKADYEKHKVYACEVTHQGLSSPVTKSFNRGEC
notes: ERY22 format
B9: rCE115H-E22Hh/none-Hi-Kn010G3/L0000vk1-k0 (antibody, human IgG1, L234A L235A, N297A, V domains shown)
VH: B3 VH
VL: DIQMTQSPSSLSASVGDRVTITCRSSQSLVHSNRNTYLHWYQQKPGKAPKLLIYKVSNRFSGVPSRFSGSGSGTDFTFTISSLQPEDIATYYCGQGTQVPYTFGQGTKVEIK
notes: one-arm
B10: rCE115H-E22Hh/none-Hi-Kn010G3/rCE115L-k0 (antibody, human IgG1, kappa, L234A L235A, N297A, V domains shown)
VH: B3 VH
VL: DVVMTQTPVSMSVSLGGQVSISCRSSQSLVHNNGNTYVSWYIQKPSQSPQLLIYKVSNRFSGISDRFSGSGSGTDFTLKISRVEPDDLGVYYCGQGTQDPYTFGAGTKLELKR
notes: one-arm; also called rCE115H-E22Hh//-Hi-Kn010G3/rCE115L-k0
B11: TR01H015-E22Hh/none-Hi-Kn010G3/TR01L003-k0 (antibody, human IgG1, L234A L235A, N297A)
heavy: QVQLVESGGGLVQPGRSLRLSCAASGFTFSNAWMHWVRQAPGKGLEWVAQIKGKSNNYATYYAESVKGRFTISRADSKNSIYLQMNSLKTEDTAVYYCRYVHYSASYGVDIWGQGTTVTVSSASTKGPSVFPLAPSSKSTSGGTAALGCLVKDYFPEPVTVSWNSGALTSGVHTFPAVLQSSGLYSLSSVVTVPSSSLGTQTYICNVNHKPSNTKVDKKVEPKSCDKTHTCPPCPAPEAAGGPSVFLFPPKPKDTLMISRTPEVTCVVVDVSHEDPEVKFNWYVDGVEVHNAKTKPREEQYASTYRVVSVLTVLHQDWLNGKEYKCKVSNKALPAPIEKTISKAKGQPREPQVYTLPPSRCELTKNQVSLSCAVKGFYPSDIAVEWESNGQPENNYKTTPPVLDSDGSFFLVSKLTVDKSRWQQGNVFSCSVMHEALHNHYTQKSLSLSPDYKDDDDK
VL: DIVMTQSPLSLPVTPGEPASISCRSSQSLVHSNRNTYLHWYQQKPGQAPRLLIYKVSNRFSGVPDRFSGSGSGTDFTLKISRVEAEDVGVYYCGQGTQVPYTFGQGTKVEIE
notes: one-arm
B12: TR01H082-E22Hh/none-Hi-Kn010G3/TR01L020-k0 (antibody, V domains shown)
VH: B2 VH with V11L, G16R, A75D, I81L, I111A
VL: DIVMTQSPLSLPVTPGEPASISCQASESPVHSNRNTYIQWYLQKPGQSPQLLIYKVSNRFSGVPDRFSGSGSGTDFTLKISRVEAEDVGVYYCYQGTQVPYTFGQGTKLEIK
notes: one-arm
B13: TR01H040-E22Hh/none-Hi-Kn010G3/TR01L019-k0 (antibody, V domains shown)
VH: B2 VH with V11L, G16R, A104S, G106S, I111A
VL: B12 VL with I38L, Q39H
notes: one-arm
B14: TR01H067-E22Hh/none-Hi-Kn010G3/TR01L019-k0 (antibody, V domains shown)
VH: B2 VH with V11L, G16R, A75D, I81L, G106S, I111A
VL: B12 VL with I38L, Q39H
notes: one-arm
B15: TR01H077-E22Hh/none-Hi-Kn010G3/L0200-k0 (antibody, V domains shown)
VH: QVQLVESGGGLVQPGRSLRLSCAASGFTFSNAWMHWVRQAPGKGLEWVAQIKDKSNNYATYYAESVKGRFTISRADSKNSIYLQMNSLKTEDTAVYYCRYVHYAAAEMVRDDIWGQGTTVTVSS
VL: B11 VL with S25P, L29P, V109L, E112K
notes: one-arm
B16: TR01H040-E22Hh/none-Hi-Kn010G3/TR01L007-k0 (antibody, V domains shown)
VH: B2 VH with V11L, G16R, A104S, G106S, I111A
VL: B12 VL with P29L, I38L, Q39H, Y94G
notes: one-arm
B17: TR01H015-E22Hh/none-Hi-Kn010G3/TR01L006-k0 (antibody, human IgG1, L234A L235A, N297A, V domains shown)
VH: B2 VH with V11L, G16R, D53G, Q56N, A104S, G106S
VL: B12 VL with P29L, I38L, Q39H, Y94G, L109V, K112E
notes: one-arm
B18: TR01H015-E22Hh/none-Hi-Kn010G3/TR01L005-k0 (antibody, human IgG1, L234A L235A, N297A)
heavy: B11 heavy
VL: B11 VL with Q42L, A48S, R50Q
notes: one-arm
B19: TR01H015-E22Hh/none-Hi-Kn010G3/TR01L001-k0 (antibody, human IgG1, L234A L235A, N297A)
heavy: B11 heavy
VL: B11 VL with R24Q, S25A, Q27E, V109L, E112K
notes: one-arm
B20: TR01H015-E22Hh/none-Hi-Kn010G3/TR01L004-k0 (antibody, human IgG1, L234A L235A, N297A)
heavy: B11 heavy
VL: B11 VL with R24Q, S25A, Q27E
notes: one-arm
B21: TR01H015-E22Hh/none-Hi-Kn010G3/TR01L002-k0 (antibody, human IgG1, L234A L235A, N297A)
heavy: B11 heavy
VL: B11 VL with Q42L, A48S, R50Q, V109L, E112K
notes: one-arm
B22: H0610-G1dh/none-Hi-Kn010G3/L0015-k0 (antibody, V domains shown)
VH: QVQLVQSGAEVKKPGASVKVSCKASGYTFTDYEMHWIRQPPGQGLEWIGAIDGKTPDTAYSQKFKGRVTLTADKSTSTAYMELSSLTSEDTAVYYCTRFYSYTYWGQGTLVTVSS
VL: B11 VL with L29P, V109L, E112K
notes: one-arm
B23: GCH054-G1dh/none-Hi-Kn010G3/L0200-k0 (antibody, V domains shown)
VH: B22 VH with K19T, Q43E, K54E, Q62E
VL: B11 VL with S25P, L29P, V109L, E112K
notes: one-arm
B24: GCH054-G1dh/none-Hi-Kn010G3/L0215-k0 (antibody, V domains shown)
VH: B22 VH with K19T, Q43E, K54E, Q62E
VL: B11 VL with S28P, L29P, L38I, V109L, E112K
notes: one-arm

What follows are binders tested against T1, soluble human CD3 epsilon chain (human, UniProt P07766 23-126) (assay: SPR).
T1 construct: also called CD3ε
T1 sequence (P07766 23-126 limits assumed): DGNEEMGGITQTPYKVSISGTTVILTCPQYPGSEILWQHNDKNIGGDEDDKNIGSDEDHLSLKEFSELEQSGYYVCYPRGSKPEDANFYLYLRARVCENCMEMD

Binder	Kd
B1	3.25 nM
B2	4.14 nM
B3	80 nM
B4	16.4 nM
B5	5.14 nM
B6	10.1 nM
B7	50.5 nM
B8	93.7 nM
B9	85.2 nM
B10	124 nM and 138 nM
B11	63.4 nM
B12	106 nM
B13	3.2 nM
B14	12.1 nM
B15	6.12 nM
B16	68.2 nM
B17	93 nM
B18	65.3 nM
B19	65.6 nM
B20	73.4 nM
B21	71.4 nM

The binders below were run against T2, human GPC3 (human, UniProt P51654 25-563) (assay: SPR).
T2 construct: range 25-563; soluble analyte; also called soluble human GPC3; glypican 3
T2 sequence (P51654 25-563 limits assumed): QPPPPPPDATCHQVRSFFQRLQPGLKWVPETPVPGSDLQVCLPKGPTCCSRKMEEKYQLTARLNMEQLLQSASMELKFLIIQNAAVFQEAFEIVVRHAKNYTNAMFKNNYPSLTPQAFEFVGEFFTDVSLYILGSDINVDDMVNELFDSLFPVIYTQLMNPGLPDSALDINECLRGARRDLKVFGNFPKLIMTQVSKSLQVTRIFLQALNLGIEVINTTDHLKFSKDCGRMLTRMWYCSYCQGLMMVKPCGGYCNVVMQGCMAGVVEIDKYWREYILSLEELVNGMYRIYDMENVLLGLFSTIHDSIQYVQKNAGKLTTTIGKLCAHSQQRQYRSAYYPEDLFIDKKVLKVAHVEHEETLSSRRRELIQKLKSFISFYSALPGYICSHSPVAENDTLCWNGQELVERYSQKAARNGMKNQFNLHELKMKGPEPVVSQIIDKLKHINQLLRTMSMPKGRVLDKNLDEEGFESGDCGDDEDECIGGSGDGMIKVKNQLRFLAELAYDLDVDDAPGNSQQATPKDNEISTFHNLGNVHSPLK

Binder	Kd [nM]
B22	1.31
B23	1.18
B24	1.62
